Assay [1] addresses T1, gp7, bacteriophage T4 gene product 7 (bacteriophage T4, UniProt P19061 1-1032).
T1 construct: Expressed cell-free; also called gene-7 product
T1 sequence: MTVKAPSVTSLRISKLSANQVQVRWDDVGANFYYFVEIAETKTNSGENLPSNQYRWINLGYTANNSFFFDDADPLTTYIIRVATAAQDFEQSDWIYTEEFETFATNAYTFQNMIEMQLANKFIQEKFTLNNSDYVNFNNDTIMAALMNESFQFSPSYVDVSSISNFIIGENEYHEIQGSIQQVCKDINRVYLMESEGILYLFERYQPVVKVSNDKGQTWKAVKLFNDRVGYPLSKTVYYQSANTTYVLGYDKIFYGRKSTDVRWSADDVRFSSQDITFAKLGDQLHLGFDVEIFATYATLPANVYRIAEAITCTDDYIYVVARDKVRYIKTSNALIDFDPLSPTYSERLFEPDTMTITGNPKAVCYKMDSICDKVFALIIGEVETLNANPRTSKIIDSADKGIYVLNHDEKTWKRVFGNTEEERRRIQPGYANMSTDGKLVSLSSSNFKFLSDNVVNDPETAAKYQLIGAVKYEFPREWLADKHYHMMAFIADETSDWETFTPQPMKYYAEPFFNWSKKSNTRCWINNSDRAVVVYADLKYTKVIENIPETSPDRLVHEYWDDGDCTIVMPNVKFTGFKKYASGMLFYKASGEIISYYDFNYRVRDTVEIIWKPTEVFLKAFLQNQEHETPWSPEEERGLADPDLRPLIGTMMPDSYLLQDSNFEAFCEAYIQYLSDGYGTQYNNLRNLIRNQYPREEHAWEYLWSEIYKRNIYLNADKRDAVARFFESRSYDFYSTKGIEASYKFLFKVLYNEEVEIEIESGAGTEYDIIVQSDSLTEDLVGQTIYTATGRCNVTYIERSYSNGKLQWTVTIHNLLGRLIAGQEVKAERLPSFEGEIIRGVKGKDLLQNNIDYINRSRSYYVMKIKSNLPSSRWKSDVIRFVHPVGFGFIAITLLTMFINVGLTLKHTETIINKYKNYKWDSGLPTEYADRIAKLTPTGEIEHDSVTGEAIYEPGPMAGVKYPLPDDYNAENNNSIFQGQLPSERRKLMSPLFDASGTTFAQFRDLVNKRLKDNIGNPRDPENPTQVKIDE
In words: on-chip assemblograms in 1D compartments on gp11-HA, post-staining with gp8.

For assay [2], the target named is T2, pre-wedge, gp10-7-8 complex (bacteriophage T4) (bacteriophage T4, UniProt P10928 1-602; P19061 1-1032; P19062 1-334).
T2 construct: also called pre-wedges
As to the kind of experiment: on-chip gene titration, yield calculated from post-staining.

Assay [3] concerns the target T3, gp10-7 complex (bacteriophage T4) (bacteriophage T4, UniProt P10928 1-602; P19061 1-1032).
T3 construct: also called gp10-7 complexes
In words: on-chip assemblograms in 1D compartments, post-staining.

B1: gp10, bacteriophage T4 gene product 10 (other)
chain: MKQNINIGNVVDDGTGDYLRKGGIKINENFDELYYELGDGDVPYSAGAWKTYNASSGQTLTAEWGKSYAINTSSGRVTINLPKGTVNDYNKVIRARDVFATWNVNPVTLVAASGDTIKGSAVPVEINVRFSDLELVYCAPGRWEYVKNKQIDKITSSDISNVARKEFLVEVQGQTDFLDVFRGTSYNVNNIRVKHRGNELYYGDVFSENSDFGSPGENEGELVPLDGFNIRLRQPCNIGDTVQIETFMDGVSQWRSSYTRRQIRLLDSKLTSKTSLEGSIYVTDLSTMKSIPFSAFGLIPGEPINPNSLEVRFNGILQELAGTVGMPLFHCVGADSDDEVECSVLGGTWEQSHTDYSVETDENGIPEILHFDSVFEHGDIINITWFNNDLGTLLTKDEIIDETDNLYVSQGPGVDISGDVNLTDFDKIGWPNVEAVQSYQRAFNAVSNIFDTIYPIGTIYENAVNPNNPVTYMGFGSWKLFGQGKVLVGWNEDISDPNFALNNNDLDSGGNPSHTAGGTGGSTSVTLENANLPATETDEEVLIVDENGSVIVGGCQYDPDESGPIYTKYREAKASTNSTHTPPTSITNIQPYITVYRWIRIA
notes: also called gene-10 product
For the molecule B1, the binding result in assay [1] is recorded as “binds”.

B2: gp6, bacteriophage T4 gene product 6 (other)
chain: MANTPVNYQLTRTANAIPEIFVGGTFAEIKQNLIEWLNGQNEFLDYDFEGSRLNVLCDLLAYNTLYIQQFGNAAVYESFMRTANLRSSVVQAAQDNGYLPTSKSAAQTEIMLTCTDALNRNYITIPRGTRFLAYAKDTSVNPYNFVSREDVIAIRDKNNQYFPRLKLAQGRIVRTEIIYDKLTPIIIYDKNIDRNQVKLYVDGAEWINWTRKSMVHAGSTSTIYYMRETIDGNTEFYFGEGEISVNASEGALTANYIGGLKPTQNSTIVIEYISTNGADANGAVGFSYADTLTNITVININENPNDDPDFVGADGGGDPEDIERIRELGTIKRETQQRCVTATDYDTFVSERFGSIIQAVQTFTDSTKPGYAFIAAKPKSGLYLTTVQREDIKNYLKDYNLAPITPSIISPNYLFIKTNLKVTYALNKLQESEQWLEGQIIDKIDRYYTEDVEIFNSSFAKSKMLTYVDDADHSVIGSSATIQMVREVQNFYKTPEAGIKYNNQIKDRSMESNTFSFNSGRKVVNPDTGLEEDVLYDVRIVSTDRDSKGIGKVIIGPFASGDVTENENIQPYTGNDFNKLANSDGRDKYYVIGEINYPADVIYWNIAKINLTSEKFEVQTIELYSDPTDDVIFTRDGSLIVFENDLRPQYLTIDLEPISQ
notes: Expressed cell-free; also called gene-6 product
Take B2: the binding result in assay [2] is “binds”.

B3: gp8, bacteriophage T4 gene product 8 (other)
chain: MNDSSVIYRAIVTSKFRTEKMLNFYNSIGSGPDKNTIFITFGRSEPWSSNENEVGFAPPYPTDSVLGVTDMWTHMMGTVKVLPSMLDAVIPRRDWGDTRYPDPYTFRINDIVVCNSAPYNATESGAGWLVYRCLDVPDTGMCSIASLTDKDECLKLGGKWTPSARSMTPPEGRGDAEGTIEPGDGYVWEYLFEIPPDVSINRCTNEYIVVPWPEELKEDPTRWGYEDNLTWQQDDFGLIYRVKANTIRFKAYLDSVYFPEAALPGNKGFRQISIITNPLEAKAHPNDPNVKAEKDYYDPEDLMRHSGEMIYMENRPPIIMAMDQTEEINILFTF
notes: Expressed cell-free; also called gene-8 product
Take B3: the binding result in assay [3] was “binds”.

(Values after US20220213467A1 (YEDA RESEARCH AND DEVELOPMENT, published 2022).)
